Substitutions are numbered along the chain they refer to. Like-named read-outs stand apart in the source and are kept apart here. One block for each binder: values may come before it.
Legend:
Assay in all cases: cell-based or functional assay
recombinant human APRIL [1] = biological target: T1, recombinant human APRIL (human, UniProt O75888 105-250, limits assumed)
T1 sequence (looked up): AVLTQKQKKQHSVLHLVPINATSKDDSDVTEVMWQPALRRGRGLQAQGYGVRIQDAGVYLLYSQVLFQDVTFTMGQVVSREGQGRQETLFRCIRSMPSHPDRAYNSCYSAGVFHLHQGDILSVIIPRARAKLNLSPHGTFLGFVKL

recombinant human BAFF [2] = biological target: T2, recombinant human BAFF (human, UniProt Q9Y275 134-285)
recombinant human APRIL [3] = biological target: T1, recombinant human APRIL; remark: listed apart in the source
recombinant human BAFF [4] = biological target: T2, recombinant human BAFF; remark: listed apart in the source
recombinant human APRIL [5] = biological target: T1, recombinant human APRIL; remark: listed apart in the source
recombinant human BAFF [6] = biological target: T2, recombinant human BAFF; remark: listed apart in the source
recombinant human BAFF [7] = biological target: T2, recombinant human BAFF; remark: listed apart in the source
recombinant human APRIL [8] = biological target: T1, recombinant human APRIL; remark: listed apart in the source
recombinant human BAFF [9] = biological target: T2, recombinant human BAFF; remark: listed apart in the source
recombinant mouse APRIL = biological target: T3, recombinant mouse APRIL (mouse, UniProt Q9D777 96-241, limits assumed)
T3 sequence (looked up): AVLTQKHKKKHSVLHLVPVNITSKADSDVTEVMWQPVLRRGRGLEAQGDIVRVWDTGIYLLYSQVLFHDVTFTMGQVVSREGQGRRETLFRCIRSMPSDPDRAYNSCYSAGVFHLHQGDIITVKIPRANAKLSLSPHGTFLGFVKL

recombinant mouse BAFF = recombinant mouse BAFF (mouse, UniProt Q9WU72 127-309)
Sequence of recombinant mouse BAFF (Q9WU72 127-309 limits assumed): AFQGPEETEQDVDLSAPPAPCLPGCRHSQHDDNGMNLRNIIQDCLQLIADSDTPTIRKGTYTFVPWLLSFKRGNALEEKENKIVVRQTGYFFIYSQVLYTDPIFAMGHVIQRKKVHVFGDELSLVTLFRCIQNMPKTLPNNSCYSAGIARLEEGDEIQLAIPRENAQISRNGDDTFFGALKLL

recombinant human APRIL [10] = biological target: T1, recombinant human APRIL; remark: listed apart in the source

IC50 (nM) APRIL (recombinant human APRIL [1]): 179 nM
IC50 APRIL (Δ TACI 30-110-Fc) (recombinant human APRIL [1]): 0.05 fold of TACI 30-110-Fc
IC50 (nM) BAFF (recombinant human BAFF [2]): 1220 nM
IC50 BAFF (Δ TACI 30-110-Fc) (recombinant human BAFF [2]): 0.21 fold of TACI 30-110-Fc
APRIL IC50 (pM) (recombinant human APRIL [3]): 9210 pM
APRIL IC50 (ΔWT) (recombinant human APRIL [3]): 0.75 fold of WT TACI (68-110)-Fc
BAFF IC50 (pM) (recombinant human BAFF [4]): 1550 pM
BAFF IC50 (ΔWT) (recombinant human BAFF [4]): 0.84 fold of WT TACI (68-110)-Fc
IC50 (nM) APRIL (recombinant human APRIL [5]): 214 nM
IC50 APRIL (Δ TACI 30-110) (recombinant human APRIL [5]): 0.05 fold of TACI 30-110
IC50 (nM) BAFF (recombinant human BAFF [6]): 1270 nM
IC50 BAFF (Δ TACI 30-110) (recombinant human BAFF [6]): 0.28 fold of TACI 30-110
IC50 (read off the curve): blockade of human BAFF signalling via TACI (NF-κB luciferase reporter, Jurkat/NF-κB/TACI cells) (recombinant human BAFF [7]): ~0.6 nM
IC50 (read off the curve): blockade of human APRIL signalling via TACI (NF-κB luciferase reporter, Jurkat/NF-κB/TACI cells) (recombinant human APRIL [8]): ~0.6 nM
IC50 (read off the curve): blockade of human BAFF signalling via TACI (NF-κB luciferase reporter, Jurkat/NF-κB/TACI cells) (recombinant human BAFF [9]): ~2 nM
B1: 26 TACI CRD2-Fc (Fc fusion)
chain: SLSCRKEQGEYYDHLLRDCISCASICGQHPKQCADFCENKLRSGSGGGGSEPKSSDKTHTCPPCPAPEAEGAPSVFLFPPKPKDTLMISRTPEVTCVVVDVSHEDPEVKFNWYVDGVEVHNAKTKPREEQYNSTYRVVSVLTVLHQDWLNGKEYKCKVSNKALPAPIEKTISKAKGQPREPQVYTLPPSRDELTKNQVSLTCLVKGFYPSDIAVEWESNGQPENNYKTTPPVLDSDGSFFLYSKLTVDKSRWQQGNVFSCSVMHEALHNHYTQKSLSLSPG

IC50 (nM) APRIL (recombinant human APRIL [1]): 369 nM
IC50 APRIL (Δ TACI 30-110-Fc) (recombinant human APRIL [1]): 0.1 fold of TACI 30-110-Fc
IC50 (nM) BAFF (recombinant human BAFF [2]): 1330 nM
IC50 BAFF (Δ TACI 30-110-Fc) (recombinant human BAFF [2]): 0.23 fold of TACI 30-110-Fc
APRIL IC50 (pM) (recombinant human APRIL [3]): 12300 pM
APRIL IC50 (ΔWT) (recombinant human APRIL [3]): 1 fold of WT TACI (68-110)-Fc
BAFF IC50 (pM) (recombinant human BAFF [4]): 1850 pM
BAFF IC50 (ΔWT) (recombinant human BAFF [4]): 1 fold of WT TACI (68-110)-Fc
IC50 (read off the curve): blockade of mouse APRIL signalling via TACI (NF-κB luciferase reporter, Jurkat/NF-κB/TACI cells) (recombinant mouse APRIL): ~0.7 nM
IC50 (read off the curve): blockade of mouse BAFF signalling via TACI (NF-κB luciferase reporter, Jurkat/NF-κB/TACI cells) (recombinant mouse BAFF): ~5 nM
IC50 (read off the curve): blockade of human APRIL signalling via TACI (NF-κB luciferase reporter, Jurkat/NF-κB/TACI cells) (recombinant human APRIL [10]): ~5 nM
IC50 (read off the curve): blockade of human BAFF signalling via TACI (NF-κB luciferase reporter, Jurkat/NF-κB/TACI cells) (recombinant human BAFF [7]): ~2 nM
IC50 (read off the curve): blockade of human BAFF signalling via TACI (NF-κB luciferase reporter, Jurkat/NF-κB/TACI cells) (recombinant human BAFF [9]): ~3 nM
B2: 13 TACI CRD2-Fc (Fc fusion)
chain: B1 chain with E10K, Y11F, D35Y

— patent publication US20250019412A1 (ALPINE IMMUNE SCIENCES, published 2025)
